Each block holds one binder with its values, some of them ahead of it.
Experiments:
[1] = target: T1, DR5 (expression construct in 293 cells, precipitated with Flag M2 antibody gel) (human, UniProt O14763 52-440); experiment: co-immunoprecipitation from co-transfected 293 cell lysates with Flag M2 antibody gel; immunoblot with HRP-conjugated antibody to myc
T1 construct: also called Death Domain Containing Receptor 5; HLYBX88; not shown: Flag tag implied by immunoprecipitation with Flag M2 gel

[2] = target: T1, DR5 (expression construct in 293 cells, …); experiment: co-immunoprecipitation from co-transfected 293 cell lysates with Flag M2 antibody gel; immunoblot with polyclonal antibody to FADD

binding result [1]: no binding
B1: myc-tagged TRADD (other, UniProt Q15628 1-312, looked up)
chain: MAAGQNGHEEWVGSAYLFVESSLDKVVLSDAYAHPQQKVAVYRALQAALAESGGSPDVLQMLKIHRSDPQLIVQLRFCGRQPCGRFLRAYREGALRAALQRSLAAALAQHSVPLQLELRAGAERLDALLADEERCLSCILAQQPDRLRDEELAELEDALRNLKCGSGARGGDGEVASAPLQPPVPSLSEVKPPPPPPPAQTFLFQGQPVVNRPLSLKDQQTFARSVGLKWRKVGRSLQRGCRALRDPALDSLAYEYEREGLYEQAFQLLRRFVQAEGRRATLQRLVEALEENELTSLAEDLLGLTDPNGGLA
notes: Detected with HRP-conjugated antibody to myc; also called myc-TRADD; not shown: myc tag

binding result [2]: no binding
B2: FADD (other, UniProt Q13158 1-208, looked up)
chain: MDPFLVLLHSVSSSLSSSELTELKFLCLGRVGKRKLERVQSGLDLFSMLLEQNDLEPGHTELLRELLASLRRHDLLRRVDDFEAGAAAGAAPGEEDLCAAFNVICDNVGKDWRRLARQLKVSDTKIDSIEDRYPRNLTERVRESLRIWKNTEKENATVAHLVGALRSCQMNLVADLVQEVQQARDLQNRSGAMSPMSWNSDASTSEAS
notes: Detected with a polyclonal antibody to FADD; also called FADD/MORT1

Source: patent EP1788086A1 (HUMAN GENOME SCIENCES, INC., dated 2007)
